Data from the supplement of paper PMC9876800.

System: peptide library, one residue held at a place counted from the S/T acceptor
Test: relative phosphorylation of the sub-library (ratio to the mean residue at this position); higher = residue favoured
Procedure, shortened: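 Purified recombinant kinases, either human or orthologue constructs, were incubated in 384-well plates with biotinylated degenerate peptide sub-libraries. Each sub-library fixed one residue at one position around a central Ser/Thr. Peptides at 50 μM and 50 μM ATP spiked with γ-32P-ATP were used for 90 min under kinase-specific conditions, and spots on streptavidin membranes were phosphorimaged and quantified by densitometry. Relative sub-library phosphorylation is expressed as a ratio to the mean residue at that position.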

PRKD2, construct: Full length, human, sequence (Q9BZL6 whole entry, looked up): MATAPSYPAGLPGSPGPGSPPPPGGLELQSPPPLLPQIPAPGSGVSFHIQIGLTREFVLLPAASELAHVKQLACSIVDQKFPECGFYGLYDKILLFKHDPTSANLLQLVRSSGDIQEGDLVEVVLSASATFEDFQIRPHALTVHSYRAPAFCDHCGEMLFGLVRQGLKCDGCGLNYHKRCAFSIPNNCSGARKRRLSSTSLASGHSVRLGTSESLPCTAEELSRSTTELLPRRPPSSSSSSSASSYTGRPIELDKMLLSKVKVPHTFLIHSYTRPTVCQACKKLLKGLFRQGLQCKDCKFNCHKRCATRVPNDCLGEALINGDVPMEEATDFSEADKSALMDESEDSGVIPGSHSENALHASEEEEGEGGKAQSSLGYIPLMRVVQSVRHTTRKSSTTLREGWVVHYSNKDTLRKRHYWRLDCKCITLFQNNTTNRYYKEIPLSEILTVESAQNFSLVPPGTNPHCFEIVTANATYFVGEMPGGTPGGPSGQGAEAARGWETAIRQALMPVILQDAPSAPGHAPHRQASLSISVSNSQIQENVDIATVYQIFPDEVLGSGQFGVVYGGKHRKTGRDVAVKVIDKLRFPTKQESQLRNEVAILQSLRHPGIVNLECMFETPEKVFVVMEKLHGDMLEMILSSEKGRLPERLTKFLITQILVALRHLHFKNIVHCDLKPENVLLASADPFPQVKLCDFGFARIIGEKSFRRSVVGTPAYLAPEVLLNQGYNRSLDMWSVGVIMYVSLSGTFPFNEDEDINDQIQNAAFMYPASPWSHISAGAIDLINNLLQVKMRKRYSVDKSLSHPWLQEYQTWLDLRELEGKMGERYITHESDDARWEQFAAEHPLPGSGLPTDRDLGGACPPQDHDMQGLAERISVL
MAPK13, construct: Full length, human, sequence (O15264 whole entry, looked up): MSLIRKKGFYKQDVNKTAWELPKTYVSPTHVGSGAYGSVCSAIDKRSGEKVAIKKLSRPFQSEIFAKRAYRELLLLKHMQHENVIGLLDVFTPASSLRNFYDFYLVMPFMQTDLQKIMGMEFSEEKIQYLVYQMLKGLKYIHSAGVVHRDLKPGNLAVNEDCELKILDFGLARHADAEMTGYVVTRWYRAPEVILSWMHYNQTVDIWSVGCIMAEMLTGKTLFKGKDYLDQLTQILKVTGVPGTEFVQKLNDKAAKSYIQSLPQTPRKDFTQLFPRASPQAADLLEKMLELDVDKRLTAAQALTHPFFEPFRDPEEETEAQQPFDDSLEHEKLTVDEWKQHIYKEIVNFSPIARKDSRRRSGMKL

MAPK13, construct: Full length, human (from UniProt O15264)
relative phosphorylation
Settings	at +1	at +2	at +3	at +4	at -1	at -2	at -3	at -4	at -5
A fixed	0.304	0.921	1.42	1.32	1.31	1.25	1.26	1.2	1.3
D fixed	0.162	0.572	1	1.09	1.11	0.486	1.09	1.46	1.26
E fixed	0.123	0.497	1.07	0.846	0.937	0.434	1.21	1.39	1.34
F fixed	0.148	0.663	0.413	1.06	0.768	0.457	1.04	0.933	0.923
G fixed	0.975	1.31	1.13	1.39	0.948	0.896	1.64	1.16	1.33
H fixed	0.143	0.694	0.936	0.884	0.927	0.405	0.773	0.879	1.05
I fixed	0.172	1.27	0.948	1.02	0.529	1.52	0.912	1.02	0.923
K fixed	0.148	0.751	0.57	0.665	0.681	0.25	0.522	0.662	0.855
L fixed	0.208	1.27	1.08	0.988	1.24	2.47	0.884	1.05	0.974
M fixed	0.182	1.04	0.659	1.28	1.77	1.49	1.14	1.22	1.16
N fixed	0.16	0.438	0.64	0.849	0.782	0.512	0.815	0.983	1.1
P fixed	12.9	1.05	2.58	0.942	2.31	3.75	1.08	0.999	0.962
Q fixed	0.613	0.805	0.853	0.754	1.15	0.554	0.999	1.04	0.915
R fixed	0.171	1.4	0.715	0.559	0.698	0.353	0.542	0.653	0.792
V fixed	0.353	2.28	1.18	1.41	0.635	1.53	1.24	0.939	0.652
W fixed	0.126	0.88	1.01	0.868	0.486	0.279	0.837	0.745	0.721
Y fixed	0.14	1.16	0.791	1.07	0.711	0.36	1.02	0.665	0.735
pThr fixed	0.158	1.67	0.939	0.853	0.309	0.376	1.14	1.49	1.7
pTyr fixed	0.126	0.994	0.837	0.652	0.729	0.339	1.07	1.38	1.19

PRKD2, construct: Full length, human (from UniProt Q9BZL6)
relative phosphorylation
Settings	at +1	at +2	at +3	at +4	at -1	at -2	at -3	at -4	at -5
A fixed	0.733	0.998	0.83	0.983	0.788	1.13	0.848	1.19	1.26
D fixed	0.55	1.02	0.913	1.22	0.704	0.232	0.153	0.433	0.319
E fixed	0.422	0.622	0.731	0.928	0.452	0.404	0.266	0.885	0.286
F fixed	0.883	0.718	0.749	0.907	0.592	0.592	0.345	0.718	0.788
G fixed	0.986	1.31	1.65	1.43	0.613	0.516	0.679	1.51	0.762
H fixed	0.977	1.06	1	1.15	1.03	0.838	0.658	0.963	0.517
I fixed	0.932	0.434	0.532	0.602	0.402	0.417	0.222	0.593	1.1
K fixed	1.22	1.07	1.11	1.14	2.6	2.73	2.59	1.86	0.788
L fixed	1.1	0.627	0.772	0.675	1.04	0.785	0.28	0.698	2.71
M fixed	1.12	0.71	0.656	0.732	0.886	1.62	0.424	1.13	0.752
N fixed	2.43	2.02	1.44	1.19	1.73	1.06	0.682	0.778	0.634
P fixed	0.399	1.89	2.6	1.42	1.49	0.415	0.992	0.512	1.35
Q fixed	1.42	1.3	1.09	1.28	0.993	2.09	0.981	1.4	1.02
R fixed	1.14	1.01	0.794	0.701	1.71	2.34	6.73	2.16	1.8
V fixed	0.902	0.49	0.592	0.756	0.571	0.73	0.265	0.714	1.62
W fixed	0.759	0.916	0.736	1.01	0.545	0.474	0.438	0.663	0.515
Y fixed	1.02	0.804	0.796	0.889	0.857	0.625	0.443	0.79	0.78
pThr fixed	0.67	0.623	0.888	0.916	0.194	0.233	0.213	0.628	0.39
pTyr fixed	0.699	0.574	0.946	0.864	0.781	0.31	0.215	0.523	0.775

PRKCI, construct: Full length, human (from UniProt P41743)
relative phosphorylation
Settings	at +1	at +2	at +3	at +4	at -1	at -2	at -3	at -4	at -5
A fixed	0.617	0.488	0.873	0.871	1.13	0.692	0.835	1.12	1
D fixed	0.136	0.156	0.275	0.43	0.343	0.184	0.208	0.464	0.499
E fixed	0.134	0.152	0.277	0.378	0.317	0.197	0.23	0.464	0.425
F fixed	1.85	0.543	0.961	0.688	0.607	0.995	1.06	0.998	1.39
G fixed	0.617	0.557	0.946	1.07	1.4	0.883	0.846	1.04	1.02
H fixed	0.755	1.42	1.24	1.2	0.896	1.17	1.01	1.1	1.05
I fixed	1.34	0.654	0.855	0.926	0.35	0.447	0.543	0.782	0.792
K fixed	1.93	2.63	2.28	2.33	2.57	1.52	1.86	1.71	1.71
L fixed	1.18	0.538	0.882	0.716	0.617	0.601	0.745	0.761	1.13
M fixed	1.74	0.873	0.722	0.745	1.02	0.878	0.915	0.883	0.814
N fixed	0.58	0.59	0.598	0.765	0.921	0.768	0.579	0.899	0.771
P fixed	0.445	0.401	0.699	1.11	0.731	0.423	0.603	0.75	0.79
Q fixed	0.79	0.655	0.659	0.863	1.12	0.813	0.698	0.859	0.788
R fixed	2.23	5.01	2.67	2.07	2.73	4.2	4.14	1.78	1.76
V fixed	1.04	0.643	0.792	0.774	0.607	0.478	0.655	0.935	0.89
W fixed	0.696	0.658	1.14	1.14	0.637	1.02	1.01	1.53	1.22
Y fixed	0.92	1.04	1.15	0.923	0.993	1.73	1.06	0.926	0.948
pThr fixed	0.598	0.355	0.444	0.621	0.312	0.388	0.638	0.775	0.716
pTyr fixed	0.324	0.334	0.539	0.442	0.309	0.349	0.391	0.388	0.599
